Measured values from publication PMC9482650, “Quantitative fragmentomics allow affinity mapping of interactomes” (Nature Communications, 2022).

T1: PCLO, Q9Y6V0
T1 sequence (Q9Y6V0 4491-4600, limits assumed, looked up): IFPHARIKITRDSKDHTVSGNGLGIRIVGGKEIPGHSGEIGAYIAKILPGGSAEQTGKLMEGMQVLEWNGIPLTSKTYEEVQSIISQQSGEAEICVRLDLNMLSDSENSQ

T2: LNX2_3, Q8N448
T2 sequence (Q8N448 463-564, limits assumed, looked up): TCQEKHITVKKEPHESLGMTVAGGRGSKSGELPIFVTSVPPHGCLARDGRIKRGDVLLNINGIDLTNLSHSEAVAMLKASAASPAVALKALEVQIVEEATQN

T3: SNTG1, Q9NSN8
T3 sequence (Q9NSN8 52-150, limits assumed, looked up): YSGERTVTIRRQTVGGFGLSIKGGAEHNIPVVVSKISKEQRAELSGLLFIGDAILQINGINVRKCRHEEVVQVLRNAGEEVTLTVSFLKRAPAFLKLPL

T4: CARD11, Q9BXL7
T4 sequence (Q9BXL7 662-765, limits assumed, looked up): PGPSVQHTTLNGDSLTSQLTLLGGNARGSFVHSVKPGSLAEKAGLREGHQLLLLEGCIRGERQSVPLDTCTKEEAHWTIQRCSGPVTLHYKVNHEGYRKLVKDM

T5: HTRA3, P83110
T5 sequence (P83110 354-453, limits assumed, looked up): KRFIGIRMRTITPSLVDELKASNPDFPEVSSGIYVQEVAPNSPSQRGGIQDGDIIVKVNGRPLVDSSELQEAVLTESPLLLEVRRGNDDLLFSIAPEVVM

T6: PARD3B_1, Q8TEW8
T6 sequence (Q8TEW8 196-299, limits assumed, looked up): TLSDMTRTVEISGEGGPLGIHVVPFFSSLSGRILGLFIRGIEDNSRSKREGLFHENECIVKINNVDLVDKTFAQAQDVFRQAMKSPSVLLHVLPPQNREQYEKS

T7: SNTA1, Q13424
T7 sequence (Q13424 82-180, limits assumed, looked up): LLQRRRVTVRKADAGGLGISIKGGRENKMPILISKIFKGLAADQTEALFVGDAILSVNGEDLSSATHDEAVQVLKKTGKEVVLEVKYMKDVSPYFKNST

T8: SYNJ2BP, P57105
T8 sequence (P57105 8-110, limits assumed, looked up): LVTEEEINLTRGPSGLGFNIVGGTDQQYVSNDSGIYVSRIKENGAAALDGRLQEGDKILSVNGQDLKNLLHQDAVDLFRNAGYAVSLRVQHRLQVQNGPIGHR

T9: MPP7, Q5T2T1
T9 sequence (Q5T2T1 134-230, limits assumed, looked up): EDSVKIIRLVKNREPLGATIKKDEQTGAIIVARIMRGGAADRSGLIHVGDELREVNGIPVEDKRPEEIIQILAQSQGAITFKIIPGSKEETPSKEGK

T10: SNTG2, Q9NY99
T10 sequence (Q9NY99 68-166, limits assumed, looked up): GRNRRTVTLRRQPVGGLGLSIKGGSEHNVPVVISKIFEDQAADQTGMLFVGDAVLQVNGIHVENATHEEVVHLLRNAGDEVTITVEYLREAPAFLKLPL

T11: HTRA4, P83105
T11 sequence (P83105 378-476, limits assumed, looked up): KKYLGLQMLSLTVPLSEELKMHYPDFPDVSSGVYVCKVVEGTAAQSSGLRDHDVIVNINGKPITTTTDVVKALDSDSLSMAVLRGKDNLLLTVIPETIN


How the values were obtained:
Assay in all cases: holdup assay
Parameters in all cases: key: below the threshold = too weak to quantify, mostly under pKd 3.1 to 4
Conditions in all cases: plain residues with an end cap or a label only (N-terminal biotin on a linker: ado-ado)
PCLO, Q9Y6V0 = molecular target: T1, PCLO, Q9Y6V0
NOS1, P29475 = molecular target: NOS1, P29475
Chain of NOS1, P29475 (P29475 9-101): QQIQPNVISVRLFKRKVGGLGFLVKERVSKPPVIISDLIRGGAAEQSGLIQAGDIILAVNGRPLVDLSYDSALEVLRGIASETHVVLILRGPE

LNX2_3, Q8N448 = molecular target: T2, LNX2_3, Q8N448
DLG2_3, Q15700 = molecular target: DLG2_3, Q15700
MAGI2_5, Q86UL8 = molecular target: MAGI2_5, Q86UL8
Chain of MAGI2_5, Q86UL8 (Q86UL8 915-1017): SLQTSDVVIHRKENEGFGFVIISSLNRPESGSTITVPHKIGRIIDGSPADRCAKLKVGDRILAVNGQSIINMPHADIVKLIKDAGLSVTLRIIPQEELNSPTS

SNTG1, Q9NSN8 = molecular target: T3, SNTG1, Q9NSN8
MAST1, Q9Y2H9 = molecular target: MAST1, Q9Y2H9
Chain of MAST1, Q9Y2H9 (Q9Y2H9 962-1065): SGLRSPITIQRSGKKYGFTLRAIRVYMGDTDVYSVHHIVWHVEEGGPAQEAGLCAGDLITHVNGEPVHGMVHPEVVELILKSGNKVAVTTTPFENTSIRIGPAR

CARD11, Q9BXL7 = molecular target: T4, CARD11, Q9BXL7
HTRA3, P83110 = molecular target: T5, HTRA3, P83110
NHERF2_2, Q15599 = molecular target: NHERF2_2, Q15599
Chain of NHERF2_2, Q15599 (Q15599 142-238): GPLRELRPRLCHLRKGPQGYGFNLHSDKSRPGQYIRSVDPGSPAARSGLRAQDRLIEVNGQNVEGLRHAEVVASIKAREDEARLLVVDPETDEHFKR

NHERF4_1, Q86UT5-2 = molecular target: NHERF4_1, Q86UT5-2
Chain of NHERF4_1, Q86UT5-2 (Q86UT5 other isoform, or with tags, fused parts or gaps): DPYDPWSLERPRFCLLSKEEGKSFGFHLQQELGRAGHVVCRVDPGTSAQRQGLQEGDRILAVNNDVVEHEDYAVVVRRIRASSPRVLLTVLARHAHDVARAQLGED

PARD3B_1, Q8TEW8 = molecular target: T6, PARD3B_1, Q8TEW8
SNTA1, Q13424 = molecular target: T7, SNTA1, Q13424
IL16_1, Q14005 = molecular target: IL16_1, Q14005
Chain of IL16_1, Q14005 (Q14005 210-306): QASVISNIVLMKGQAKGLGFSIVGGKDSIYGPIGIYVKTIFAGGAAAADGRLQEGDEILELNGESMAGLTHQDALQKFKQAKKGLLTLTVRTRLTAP

SYNJ2BP, P57105 = molecular target: T8, SYNJ2BP, P57105
SCRIB_2, Q14160 = molecular target: SCRIB_2, Q14160
Chain of SCRIB_2, Q14160 (Q14160 857-960): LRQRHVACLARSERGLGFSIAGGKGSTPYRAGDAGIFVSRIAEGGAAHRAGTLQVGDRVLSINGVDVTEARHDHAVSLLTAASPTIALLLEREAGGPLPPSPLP

MPP7, Q5T2T1 = molecular target: T9, MPP7, Q5T2T1
Inadl_4, Q8NI35 = molecular target: Inadl_4, Q8NI35
Chain of Inadl_4, Q8NI35 (Q8NI35 547-651): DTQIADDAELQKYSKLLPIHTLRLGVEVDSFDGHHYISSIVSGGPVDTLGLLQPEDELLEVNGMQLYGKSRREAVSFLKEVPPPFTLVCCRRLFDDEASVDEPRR

Inadl_3, Q8NI35 = molecular target: Inadl_3, Q8NI35
Chain of Inadl_3, Q8NI35 (Q8NI35 359-469): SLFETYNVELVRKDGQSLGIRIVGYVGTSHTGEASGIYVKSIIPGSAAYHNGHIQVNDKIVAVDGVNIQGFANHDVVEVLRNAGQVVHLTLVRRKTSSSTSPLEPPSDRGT

PARD3_3, Q8TEW0 = molecular target: PARD3_3, Q8TEW0
Chain of PARD3_3, Q8TEW0 (Q8TEW0 582-685): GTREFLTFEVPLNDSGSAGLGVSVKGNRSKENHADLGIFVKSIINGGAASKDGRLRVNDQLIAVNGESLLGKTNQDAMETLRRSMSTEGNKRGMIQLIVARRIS

AHNAK1, Q09666 = molecular target: AHNAK1, Q09666
Chain of AHNAK1, Q09666 (Q09666 4-100): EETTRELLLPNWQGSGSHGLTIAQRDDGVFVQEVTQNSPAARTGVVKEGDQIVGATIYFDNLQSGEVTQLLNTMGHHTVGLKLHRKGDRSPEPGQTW

SNTG2, Q9NY99 = molecular target: T10, SNTG2, Q9NY99
ARHGEF12, Q9NZN5-2 = molecular target: ARHGEF12, Q9NZN5-2
Chain of ARHGEF12, Q9NZN5-2 (Q9NZN5 other isoform, or with tags, fused parts or gaps): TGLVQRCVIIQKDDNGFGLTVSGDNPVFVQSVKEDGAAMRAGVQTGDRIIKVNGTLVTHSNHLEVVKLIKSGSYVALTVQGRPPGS

TJP1_2, Q07157 = molecular target: TJP1_2, Q07157
Chain of TJP1_2, Q07157 (Q07157 181-274): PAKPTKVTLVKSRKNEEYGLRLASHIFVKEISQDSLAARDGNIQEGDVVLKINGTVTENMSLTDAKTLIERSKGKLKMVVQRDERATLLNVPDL

Inadl_9, Q8NI35 = molecular target: Inadl_9, Q8NI35
Chain of Inadl_9, Q8NI35 (Q8NI35 1530-1615): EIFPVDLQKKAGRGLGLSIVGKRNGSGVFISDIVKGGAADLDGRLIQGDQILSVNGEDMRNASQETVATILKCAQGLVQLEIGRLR

HTRA4, P83105 = molecular target: T11, HTRA4, P83105

Binder	pKd (PCLO, Q9Y6V0)	pKd (NOS1, P29475)	pKd (LNX2_3, Q8N448)	pKd (DLG2_3, Q15700)	pKd (MAGI2_5, Q86UL8)	pKd (SNTG1, Q9NSN8)	pKd (MAST1, Q9Y2H9)	pKd (CARD11, Q9BXL7)	pKd (HTRA3, P83110)	pKd (NHERF2_2, Q15599)	pKd (NHERF4_1, Q86UT5-2)	pKd (PARD3B_1, Q8TEW8)	pKd (SNTA1, Q13424)	pKd (IL16_1, Q14005)	pKd (SYNJ2BP, P57105)	pKd (SCRIB_2, Q14160)	pKd (MPP7, Q5T2T1)	pKd (Inadl_4, Q8NI35)	pKd (Inadl_3, Q8NI35)	pKd (PARD3_3, Q8TEW0)	also measured
AHGSTRDQSI [KCNB1, Q14721]	below the threshold	below the threshold	below the threshold	3.82	below the threshold	3.5	3.69	below the threshold	below the threshold	below the threshold	3.54	below the threshold	below the threshold	below the threshold	below the threshold	below the threshold	below the threshold	below the threshold	below the threshold	below the threshold	pKd (AHNAK1, Q09666): below the threshold; pKd (SNTG2, Q9NY99): below the threshold; pKd (ARHGEF12, Q9NZN5-2): below the threshold; pKd (TJP1_2, Q07157): below the threshold; pKd (Inadl_9, Q8NI35): below the threshold; pKd (HTRA4, P83105): below the threshold
EAVTVESTSL [SLC22A11, Q9NSA0]	below the threshold	3.5	below the threshold	below the threshold	4.45	3.5	5.07	below the threshold	below the threshold	5.45	4.55	4.43	3.65	below the threshold	4.15	3.79	below the threshold	below the threshold	below the threshold	below the threshold	pKd (AHNAK1, Q09666): below the threshold; pKd (SNTG2, Q9NY99): 3.64; pKd (ARHGEF12, Q9NZN5-2): 5.17; pKd (TJP1_2, Q07157): below the threshold; pKd (Inadl_9, Q8NI35): below the threshold; pKd (HTRA4, P83105): below the threshold
PEKVSNTTVV [IGSF5, Q9NSI5]	below the threshold	3.64	below the threshold	3.83	3.64	below the threshold	4.53	below the threshold	below the threshold	below the threshold	below the threshold	below the threshold	3.93	below the threshold	3.51	below the threshold	below the threshold	below the threshold	3.48	below the threshold	pKd (AHNAK1, Q09666): below the threshold; pKd (SNTG2, Q9NY99): 3.76; pKd (ARHGEF12, Q9NZN5-2): 4.21; pKd (TJP1_2, Q07157): below the threshold; pKd (Inadl_9, Q8NI35): below the threshold; pKd (HTRA4, P83105): below the threshold
QQGLLPHSSC [TYRO3, Q06418]	below the threshold	below the threshold	below the threshold	below the threshold	below the threshold	below the threshold	below the threshold	below the threshold	below the threshold	below the threshold	3.66	below the threshold	below the threshold	below the threshold	below the threshold	below the threshold	below the threshold	below the threshold	below the threshold	below the threshold	pKd (AHNAK1, Q09666): below the threshold; pKd (SNTG2, Q9NY99): below the threshold; pKd (ARHGEF12, Q9NZN5-2): 4.18; pKd (TJP1_2, Q07157): below the threshold; pKd (Inadl_9, Q8NI35): below the threshold; pKd (HTRA4, P83105): below the threshold
